Data on one molecule can be found in US20190153059A1 (ADEPTHERA, published 2019).

Like-named read-outs stand apart in the source and are kept apart here.

What all share (test): cell-based or functional assay
The target of one test is CLR/RAMP2 receptor (UniProt Q16602 23-461; O60895 43-175, limits assumed).
The target in a further test is CLR/RAMP1 receptor (UniProt Q16602 23-461; O60894 27-148, limits assumed).
For test [1], the target named is T1, type 1 angiotensin II receptor AGTR1 (UniProt P30556 1-359, limits assumed).
T1 sequence (looked up): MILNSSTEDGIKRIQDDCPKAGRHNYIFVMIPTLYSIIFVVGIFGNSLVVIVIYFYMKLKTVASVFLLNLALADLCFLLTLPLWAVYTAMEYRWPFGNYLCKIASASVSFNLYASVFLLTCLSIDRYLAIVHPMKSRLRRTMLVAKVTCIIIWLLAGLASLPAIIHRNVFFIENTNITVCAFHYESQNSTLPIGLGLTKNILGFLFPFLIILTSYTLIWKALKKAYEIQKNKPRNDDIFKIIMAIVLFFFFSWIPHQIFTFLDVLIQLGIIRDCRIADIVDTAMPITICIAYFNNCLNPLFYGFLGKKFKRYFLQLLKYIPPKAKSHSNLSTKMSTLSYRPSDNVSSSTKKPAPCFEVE

Test [2] deals with T1, type 1 angiotensin II receptor AGTR1. This is another data set of the same source.

Chain of CLR/RAMP1 receptor (Q16602 23-461 limits assumed, chain 1 of 2): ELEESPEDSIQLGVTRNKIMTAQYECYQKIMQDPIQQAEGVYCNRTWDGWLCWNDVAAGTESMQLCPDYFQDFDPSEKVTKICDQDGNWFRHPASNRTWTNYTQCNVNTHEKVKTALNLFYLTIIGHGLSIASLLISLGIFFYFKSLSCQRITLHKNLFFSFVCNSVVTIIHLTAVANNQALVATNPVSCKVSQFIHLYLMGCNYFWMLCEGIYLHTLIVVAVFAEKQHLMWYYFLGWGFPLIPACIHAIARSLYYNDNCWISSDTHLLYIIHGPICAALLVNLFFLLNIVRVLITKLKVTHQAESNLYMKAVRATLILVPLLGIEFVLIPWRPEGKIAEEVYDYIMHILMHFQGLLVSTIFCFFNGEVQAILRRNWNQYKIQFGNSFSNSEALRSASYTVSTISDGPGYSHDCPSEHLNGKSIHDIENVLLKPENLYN
Chain of CLR/RAMP1 receptor (O60894 27-148 limits assumed, chain 2 of 2): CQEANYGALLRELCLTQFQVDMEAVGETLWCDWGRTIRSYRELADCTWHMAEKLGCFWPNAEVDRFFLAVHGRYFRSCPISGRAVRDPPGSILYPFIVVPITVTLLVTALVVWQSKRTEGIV
Chain of CLR/RAMP2 receptor (Q16602 23-461 limits assumed, chain 1 of 2): as the sequence (Q16602 23-461 limits assumed, chain 1 of 2) above
Chain of CLR/RAMP2 receptor (O60895 43-175 limits assumed, chain 2 of 2): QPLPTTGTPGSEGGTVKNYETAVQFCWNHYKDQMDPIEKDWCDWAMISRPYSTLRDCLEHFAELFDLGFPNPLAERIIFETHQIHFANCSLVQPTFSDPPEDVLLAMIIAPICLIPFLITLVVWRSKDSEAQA

With RVYVHPAKGCRFGTCTVQKLAHQIYQFTDKDVAPRSKISPQGY (Sar at N-terminus (Sar-RVYVHPA); miniPEG before K(PAL); K(PAL); -NH2) [AGTR1 antagonist/CLR/RAMP agonist MRL (SEQ ID NO: 234)], in the test with CLR/RAMP2 receptor, the “CLR/RAMP2 EC50” value stood at 1 nM and the “CLR/RAMP2 Max Activity” value was 86 % of positive controls. For the same molecule, in the test with CLR/RAMP1 receptor, the “CLR/RAMP1 EC50” value worked out at 0.3 nM and the “CLR/RAMP1 Max Activity” value was 132 % of positive controls. Also, the “AGTR1 IC50 (calcium flux assay)” value in test [1] was 20 nM. Besides, the “AGTR1 IC50 (calcium flux assay)” value in test [2] is 19.9 nM.
